From publication PMC5758537

Legend:
[1] = target: dopamine D2 receptor (rat, endogenous) (rat (endogenous in rat striatum)) (UniProt P61169); test: co-IP; rat NAc protein homogenates (300 ug), anti-D2R antibody overnight at 4 C, protein G/A, blot with anti-D1R; rats treated with saline or SKF 83959, with or without TAT-D1 (300 pmol, i.c.v.)
[2] = target: dopamine D2 receptor (rat, endogenous) (rat (endogenous in rat striatum)) (UniProt P61169); test: FRET or BRET; in situ confocal FRET on rat brain sections, NAc (core and shell); anti-D1R-Alexa 488 (donor) and anti-D2R-Alexa 568 (acceptor) directly conjugated

Chain of UniProt P61169 (P61169 whole entry): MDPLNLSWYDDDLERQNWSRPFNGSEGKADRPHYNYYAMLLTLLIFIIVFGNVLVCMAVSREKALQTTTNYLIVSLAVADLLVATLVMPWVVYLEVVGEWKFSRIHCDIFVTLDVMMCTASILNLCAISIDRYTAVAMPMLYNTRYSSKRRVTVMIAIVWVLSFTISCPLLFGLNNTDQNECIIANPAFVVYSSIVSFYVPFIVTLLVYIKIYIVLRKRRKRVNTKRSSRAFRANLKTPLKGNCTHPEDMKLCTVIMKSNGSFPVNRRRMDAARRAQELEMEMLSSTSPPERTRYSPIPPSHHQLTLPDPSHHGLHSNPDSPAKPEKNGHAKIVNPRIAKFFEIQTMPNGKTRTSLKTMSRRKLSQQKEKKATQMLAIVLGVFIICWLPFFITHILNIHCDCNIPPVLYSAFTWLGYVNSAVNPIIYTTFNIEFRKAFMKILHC

FRET efficiency [2]	Substance	percent decrease of D1R co-immunoprecipitated with D2R [1] [%]
–	TAT-D1 peptide	> 50
0.36	dopamine D1 receptor (rat, endogenous) (from UniProt P18901 1-446)	–
